Molecular target: OVA257-264 (SIINFEKL) presented by H-2Kb on dendritic cells (chicken; mouse)
Experiment: cell-based or functional assay

“OT-1 T cell receptor (TCR of OT-1 TCR transgenic mice, specific for the OVA257-264 epitope)” showed a proliferating CD8+ T cells (CFSE dilution), BMDCs loaded with ZEBRA-OVA257-264 after maturation of 70%, a proliferating CD8+ T cells (CFSE dilution), BMDCs loaded with ZEBRA-OVA257-264 before maturation of 69% and a proliferating CD8+ T cells (CFSE dilution, 5 days), DCs loaded with ZEBRA-OVA257-264 of 81%. For the same substance, the proliferating CD8+ T cells (CFSE dilution, 5 days), DCs pulsed with 10 uM Ova peptide (positive control) was 93%.
